Laboratory results taken from the supplement of paper PMC7877785.
± gives the uncertainty stated by the source.

Test: self-splicing fitness, log relative to wild type (ln ratio); higher = more splicing; Tetrahymena group I intron in knt gene, E. coli kanamycin selection, DiMSum; sequences stand for … in CUCUCU…GGAGGGAAAAGUUAUCAGGCAUGCACCUGGUAGCUAGUCUUUAAACCAAUAGAUUGCAUCGGUUUAAAAGGCAAGACCGUCAAAUUGCGGGAAAGGGGUCAACAGCCGUUCAGUACCAAGUCUCAGGGGAAACUUUGAGAUGGCCUUGCAAAGGGUAUGGUAAUAAGCUGACGGACAUGGUCCUAACCACGCAGCCAAGUCCUAAGUCAACAGAUCUUCUGUUGAUAUGGAUGCAGUUCACAGACUAAAUGUCGGUCGGGGAAGAUGUAUUCUUCUCAUAAGAUAUAGUCGGACCUCUCCUUAAUGGGAGCUAGCGGAUGAAGUGAUGCAACACUGGAGCCGCUGGGAACUAAUUUGUAUGCGAAAGUAUAUUGAUUAGUUUUGGAGUACUCGUGGUCG
Summary of the method: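 Library with all eight P1ex-region intron nucleotides randomised, intron inside the knt kanamycin-resistance gene on pET-22b(+), in E. coli BL21(DE3). Cells grew overnight at 37°C or 30°C on LB agar with or without 25 μg/mL kanamycin (plus 100 μg/mL carbenicillin, 50 μM IPTG, 0.2% rhamnose), in six replicate transformations. Pooled colonies were amplicon-sequenced on Illumina HiSeq 2500. DiMSum fitness is the error-weighted combination of wild-type-normalised replicate fold changes, kanamycin versus none.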

Row | Sequence | self-splicing fitness (ln) (30 °C) | self-splicing fitness (ln) (37 °C)
1 | CAGGAGCAAUAUUACGUGUU | -3.24 ± 0.17 | -2.55 ± 0.27
2 | CAGGAGCAAUAUUACGUUGU | -3.34 ± 0.17 | -2.26 ± 0.19
3 | CAGUAGCAAUAUUACGAAGC | – | -3.05 ± 0.32
4 | CAGUAGCAAUAUUACGACCA | -0.792 ± 0.28 | -0.375 ± 0.27
5 | CAGUAGCAAUAUUACGAGAC | -3.08 ± 0.24 | -1.31 ± 0.28
6 | CAGUAGCAAUAUUACGAUGC | -3.51 ± 0.28 | -2.67 ± 0.3
7 | CAGUAGCAAUAUUACGCAGC | -3.05 ± 0.34 | -1.3 ± 0.33
8 | CAGUAGCAAUAUUACGCCGA | -3.13 ± 0.35 | -0.00684 ± 0.18
9 | CAGUAGCAAUAUUACGCCUU | -1.35 ± 0.4 | –
10 | CAGUAGCAAUAUUACGCGAC | – | -1 ± 0.32
11 | CAGUAGCAAUAUUACGCGAU | -2.39 ± 0.28 | -2.67 ± 0.34
12 | CAGUAGCAAUAUUACGCGCU | -1.56 ± 0.26 | -1.28 ± 0.27
13 | CAGUAGCAAUAUUACGCUUU | -4.27 ± 0.24 | -1.93 ± 0.17
14 | CAGUAGCAAUAUUACGGCAC | -2.42 ± 0.21 | -2.06 ± 0.25
15 | CAGUAGCAAUAUUACGGCGA | -2.45 ± 0.26 | -1.9 ± 0.29
16 | CAGUAGCAAUAUUACGGCUG | -3.85 ± 0.47 | -2.37 ± 0.34
17 | CAGUAGCAAUAUUACGGGGA | -3.9 ± 0.4 | -2.23 ± 0.21
18 | CAGUAGCAAUAUUACGGUGC | -3.8 ± 0.28 | -3.2 ± 0.31
19 | CAGUAGCAAUAUUACGGUGU | -3.63 ± 0.3 | -0.678 ± 0.15
20 | CAGUAGCAAUAUUACGUACA | -1.46 ± 0.14 | -1.83 ± 0.16
21 | CAGUAGCAAUAUUACGUCCC | – | -1.76 ± 0.4
22 | CAUAAGCAAUAUUACGAACG | -0.246 ± 0.074 | -0.0693 ± 0.087
23 | CAUAAGCAAUAUUACGAUAC | – | -2.28 ± 0.34
24 | CAUAAGCAAUAUUACGAUCG | -0.428 ± 0.1 | -0.532 ± 0.11
25 | CAUAAGCAAUAUUACGAUGC | -3.14 ± 0.19 | -2.34 ± 0.28

Row | Sequence | self-splicing fitness (ln) (30 °C) | self-splicing fitness (ln) (37 °C)
26 | CAUAAGCAAUAUUACGAUGU | -3.66 ± 0.14 | -2.3 ± 0.14
27 | CAUAAGCAAUAUUACGAUUC | -3.25 ± 0.2 | -3.11 ± 0.26
28 | CAUAAGCAAUAUUACGCAAG | -2.14 ± 0.11 | -0.944 ± 0.13
29 | CAUAAGCAAUAUUACGCGCU | -3.52 ± 0.28 | -2.34 ± 0.2
30 | CAUAAGCAAUAUUACGCGGA | -3.61 ± 0.24 | -1.68 ± 0.16
31 | CAUAAGCAAUAUUACGCUCA | -1.25 ± 0.088 | -1.18 ± 0.11
32 | CAUAAGCAAUAUUACGGCAC | -2.85 ± 0.22 | -2.59 ± 0.21
33 | CAUAAGCAAUAUUACGGGAG | -1.96 ± 0.097 | -1.14 ± 0.095
34 | CAUAAGCAAUAUUACGGGUG | -2.3 ± 0.08 | -1.17 ± 0.078
35 | CAUAAGCAAUAUUACGGUGA | -3.65 ± 0.27 | -2.36 ± 0.23
36 | CAUAAGCAAUAUUACGUAAC | -3.03 ± 0.23 | -2.1 ± 0.26
37 | CAUAAGCAAUAUUACGUAGC | -3.15 ± 0.17 | -2.96 ± 0.2
38 | CAUAAGCAAUAUUACGUCGC | -4.06 ± 0.18 | -3.2 ± 0.17
39 | CAUAAGCAAUAUUACGUGCG | -1.15 ± 0.079 | -0.792 ± 0.098
40 | CAUAAGCAAUAUUACGUGGA | -3.5 ± 0.22 | -2.53 ± 0.21
41 | CAUAAGCAAUAUUACGUUGG | -2.6 ± 0.095 | -1.26 ± 0.094
42 | CAUAAGCAAUAUUACGUUGU | -3.55 ± 0.15 | -2.98 ± 0.18
43 | CAUCAGCAAUAUUACGAUCC | -1.56 ± 0.12 | -0.817 ± 0.16
44 | CAUCAGCAAUAUUACGCACA | -0.992 ± 0.098 | -1.21 ± 0.11
45 | CAUCAGCAAUAUUACGCCCG | -0.306 ± 0.12 | 0.0609 ± 0.15
46 | CAUCAGCAAUAUUACGCCGU | -2.51 ± 0.11 | -1.13 ± 0.15
47 | CAUCAGCAAUAUUACGCGAA | -3.13 ± 0.14 | -1.93 ± 0.12
48 | CAUCAGCAAUAUUACGCGCA | -1.21 ± 0.1 | -0.493 ± 0.12
49 | CAUCAGCAAUAUUACGCGGC | -3.39 ± 0.2 | -2.8 ± 0.29
50 | CAUCAGCAAUAUUACGCUAG | -0.614 ± 0.075 | -0.102 ± 0.093

Row | Sequence | self-splicing fitness (ln) (30 °C) | self-splicing fitness (ln) (37 °C)
51 | CAUCAGCAAUAUUACGGAGC | -3.44 ± 0.31 | -2.1 ± 0.31
52 | CAUCAGCAAUAUUACGGCGA | -3.11 ± 0.28 | -1.27 ± 0.15
53 | CAUCAGCAAUAUUACGGCUA | -2.82 ± 0.2 | -1.44 ± 0.16
54 | CAUCAGCAAUAUUACGGGGA | -2.59 ± 0.14 | -1.22 ± 0.12
55 | CAUCAGCAAUAUUACGUACC | -2.74 ± 0.3 | -1.63 ± 0.28
56 | CAUCAGCAAUAUUACGUAGC | -3.39 ± 0.21 | -1.98 ± 0.19
57 | CAUCAGCAAUAUUACGUCUA | -2.35 ± 0.095 | -1.58 ± 0.08
58 | CAUCAGCAAUAUUACGUGCC | -2.97 ± 0.16 | -2.47 ± 0.24
59 | CAUCAGCAAUAUUACGUUCG | 0.13 ± 0.046 | -0.286 ± 0.063
60 | CAUCAGCAAUAUUACGUUGA | -3 ± 0.15 | -3.46 ± 0.24
61 | CAUGAGCAAUAUUACGAAAU | -2.72 ± 0.3 | -3.25 ± 0.43
62 | CAUGAGCAAUAUUACGAAUA | -1.59 ± 0.18 | -2.72 ± 0.4
63 | CAUGAGCAAUAUUACGACAA | – | -1.36 ± 0.33
64 | CAUGAGCAAUAUUACGACGU | -4.25 ± 0.39 | -0.969 ± 0.2
65 | CAUGAGCAAUAUUACGACUC | -3.85 ± 0.3 | -3.38 ± 0.39
66 | CAUGAGCAAUAUUACGAGUG | -2.67 ± 0.13 | -3 ± 0.21
67 | CAUGAGCAAUAUUACGAGUU | – | -2.6 ± 0.24
68 | CAUGAGCAAUAUUACGAUAC | -2.93 ± 0.35 | –
69 | CAUGAGCAAUAUUACGAUCU | -2.9 ± 0.36 | -2.37 ± 0.3
70 | CAUGAGCAAUAUUACGAUUA | -3.08 ± 0.24 | -2.02 ± 0.21
71 | CAUGAGCAAUAUUACGCCAA | -3.67 ± 0.41 | -2.53 ± 0.36
72 | CAUGAGCAAUAUUACGCUUA | -3.77 ± 0.43 | -2.19 ± 0.25
73 | CAUGAGCAAUAUUACGGAAG | -1.47 ± 0.077 | -0.61 ± 0.1
74 | CAUGAGCAAUAUUACGGCAG | -0.481 ± 0.086 | -0.96 ± 0.14
75 | CAUGAGCAAUAUUACGGGAG | -1 ± 0.095 | -1.54 ± 0.13

Row | Sequence | self-splicing fitness (ln) (30 °C) | self-splicing fitness (ln) (37 °C)
76 | CAUGAGCAAUAUUACGUACA | -3.1 ± 0.22 | -2.17 ± 0.3
77 | CAUGAGCAAUAUUACGUAUA | -3.31 ± 0.3 | -2.2 ± 0.21
78 | CAUGAGCAAUAUUACGUAUU | -3.86 ± 0.46 | -0.455 ± 0.16
79 | CAUGAGCAAUAUUACGUCGA | -2.57 ± 0.33 | –
80 | CAUGAGCAAUAUUACGUCUU | -4.56 ± 0.34 | -2.53 ± 0.25
81 | CAUGAGCAAUAUUACGUGUA | -3.33 ± 0.21 | -2.1 ± 0.15
82 | CAUGAGCAAUAUUACGUUCA | -3.67 ± 0.26 | -2.29 ± 0.17
83 | CAUGAGCAAUAUUACGUUCG | -1.33 ± 0.13 | -0.161 ± 0.14
84 | CAUGAGCAAUAUUACGUUUA | -3.69 ± 0.21 | -2.84 ± 0.2
85 | CAUUAGCAAUAUUACGACGC | -1.73 ± 0.39 | –
86 | CAUUAGCAAUAUUACGCAGU | -3.73 ± 0.18 | -2.77 ± 0.22
87 | CAUUAGCAAUAUUACGCCAG | -0.337 ± 0.094 | 0.267 ± 0.12
88 | CAUUAGCAAUAUUACGCCCA | -2.43 ± 0.2 | -1.47 ± 0.24
89 | CAUUAGCAAUAUUACGGAAG | -0.396 ± 0.1 | -0.104 ± 0.12
90 | CAUUAGCAAUAUUACGGGAG | -1.46 ± 0.12 | -1.09 ± 0.11
91 | CAUUAGCAAUAUUACGUGAC | -3.18 ± 0.26 | -1.58 ± 0.33
92 | CAUUAGCAAUAUUACGUUCU | -2.56 ± 0.15 | -2.62 ± 0.16
93 | CCAAAGCAAUAUUACGACCU | -3.31 ± 0.21 | -3.23 ± 0.38
94 | CCAAAGCAAUAUUACGACUU | -3.77 ± 0.16 | -3.01 ± 0.2
95 | CCAAAGCAAUAUUACGAGCC | -3.2 ± 0.21 | -2.07 ± 0.19
96 | CCAAAGCAAUAUUACGCCUC | -3.33 ± 0.29 | -2.52 ± 0.32
97 | CCAAAGCAAUAUUACGCGGU | -4.85 ± 0.29 | -1.78 ± 0.21
98 | CCAAAGCAAUAUUACGCUAC | -2.17 ± 0.23 | -1.58 ± 0.27
